{
  "source": "paper PMC12802937",
  "about": "(Nucleic Acids Research, 2026)",
  "test_in_all_cases": "SPR; Lge1-CT immobilised on a CM5 chip, Bre1-LR flown over; Biacore 8K, 25°C, 20 mM HEPES (pH 7.5), 200 mM sodium chloride, 0.02% Tween 20",
  "settings_in_all_cases": "both partners purified",
  "key": {"Bre1-LR K534E": {"biological_target": "T1, Bre1-LR K534E (budding yeast, UniProt Q07457 227-700, K534E)", "T1 construct": "source: E. coli BL21 Rosetta (DE3), purified (Ni-NTA, heparin, gel filtration)", "T1 sequence (looked up)": "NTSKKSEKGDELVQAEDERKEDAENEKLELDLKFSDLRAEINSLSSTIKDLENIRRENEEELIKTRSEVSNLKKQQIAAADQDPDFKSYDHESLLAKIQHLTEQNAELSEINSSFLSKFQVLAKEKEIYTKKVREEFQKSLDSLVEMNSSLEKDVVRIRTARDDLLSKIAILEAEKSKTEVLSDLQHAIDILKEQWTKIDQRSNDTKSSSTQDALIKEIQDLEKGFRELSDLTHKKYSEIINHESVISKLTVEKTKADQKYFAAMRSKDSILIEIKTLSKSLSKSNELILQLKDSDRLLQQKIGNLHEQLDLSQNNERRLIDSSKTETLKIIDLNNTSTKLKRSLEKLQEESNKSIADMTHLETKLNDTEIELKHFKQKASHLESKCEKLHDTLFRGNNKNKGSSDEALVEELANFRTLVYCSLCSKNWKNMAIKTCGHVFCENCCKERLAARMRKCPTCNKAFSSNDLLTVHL"}, "Bre1-LR V382N": {"biological_target": "T2, Bre1-LR V382N (budding yeast, UniProt Q07457 227-700, V382N)", "T2 construct": "source: E. coli BL21 Rosetta (DE3), purified (Ni-NTA, heparin, gel filtration)", "T2 sequence (looked up)": "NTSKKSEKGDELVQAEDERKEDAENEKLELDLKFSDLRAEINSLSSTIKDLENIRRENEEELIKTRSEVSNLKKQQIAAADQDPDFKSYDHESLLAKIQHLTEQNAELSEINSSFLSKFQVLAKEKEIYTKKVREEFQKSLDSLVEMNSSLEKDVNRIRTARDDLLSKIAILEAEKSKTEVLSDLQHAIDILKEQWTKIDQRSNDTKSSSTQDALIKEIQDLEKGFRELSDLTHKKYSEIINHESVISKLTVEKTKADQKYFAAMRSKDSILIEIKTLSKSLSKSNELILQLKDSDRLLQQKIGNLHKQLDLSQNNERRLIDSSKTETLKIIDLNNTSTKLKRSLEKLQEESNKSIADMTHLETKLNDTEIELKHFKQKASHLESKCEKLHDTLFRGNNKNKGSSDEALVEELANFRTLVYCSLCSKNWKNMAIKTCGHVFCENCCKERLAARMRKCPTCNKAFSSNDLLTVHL"}, "Bre1-LR A489N": {"biological_target": "T3, Bre1-LR A489N (budding yeast, UniProt Q07457 227-700, A489N)", "T3 construct": "source: E. coli BL21 Rosetta (DE3), purified (Ni-NTA, heparin, gel filtration)", "T3 sequence (looked up)": "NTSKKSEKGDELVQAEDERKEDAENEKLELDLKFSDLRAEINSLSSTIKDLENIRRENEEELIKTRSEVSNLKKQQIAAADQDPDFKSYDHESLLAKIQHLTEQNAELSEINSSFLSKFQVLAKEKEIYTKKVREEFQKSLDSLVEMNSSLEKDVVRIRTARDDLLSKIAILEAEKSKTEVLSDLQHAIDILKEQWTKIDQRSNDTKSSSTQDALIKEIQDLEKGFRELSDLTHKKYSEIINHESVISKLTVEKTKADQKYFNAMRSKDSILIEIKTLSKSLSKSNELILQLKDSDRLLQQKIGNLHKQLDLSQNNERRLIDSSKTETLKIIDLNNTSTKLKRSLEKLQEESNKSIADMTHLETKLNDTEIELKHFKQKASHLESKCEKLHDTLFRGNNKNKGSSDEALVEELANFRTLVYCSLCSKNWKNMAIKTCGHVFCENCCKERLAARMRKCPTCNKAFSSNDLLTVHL"}, "Bre1-LR K379E": {"biological_target": "T4, Bre1-LR K379E (budding yeast, UniProt Q07457 227-700, K379E)", "T4 construct": "source: E. coli BL21 Rosetta (DE3), purified (Ni-NTA, heparin, gel filtration)", "T4 sequence (looked up)": "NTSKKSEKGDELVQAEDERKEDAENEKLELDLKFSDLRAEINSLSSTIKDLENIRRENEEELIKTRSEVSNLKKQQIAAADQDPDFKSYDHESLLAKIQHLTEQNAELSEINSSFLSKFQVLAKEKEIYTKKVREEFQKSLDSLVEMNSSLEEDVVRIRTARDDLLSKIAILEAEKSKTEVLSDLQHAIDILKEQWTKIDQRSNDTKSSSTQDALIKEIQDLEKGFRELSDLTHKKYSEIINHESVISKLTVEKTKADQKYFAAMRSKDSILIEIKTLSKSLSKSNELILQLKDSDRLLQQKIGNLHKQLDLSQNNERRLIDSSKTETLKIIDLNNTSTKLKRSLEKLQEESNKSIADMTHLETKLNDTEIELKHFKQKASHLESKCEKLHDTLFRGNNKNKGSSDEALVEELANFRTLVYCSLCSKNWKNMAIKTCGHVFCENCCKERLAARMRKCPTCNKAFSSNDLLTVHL"}},
  "data": [
    {"binder": "Lge1-CT (Lge1 residues 261–332), intein-chitin binding domain (CBD) tag construct (domain or fragment, budding yeast, UniProt Q02796 261-332, looked up, Lge1, budding yeast, residues 261-332; residues 268–331 resolved in the electron density; the intein-CBD tag is named on the protein in the pull-down; also called intein-CBD-fused Lge1-CT; intein-CBD-tagged Lge1-CT; source: E. coli BL21 Rosetta (DE3): cleared cell extract on chitin resin (pull-down); purified (chitin, heparin, gel filtration) for ITC and SPR; co-purified with Bre1-LR for the …) KNVKKTNNTESECEKAREVFKESDSIDSALEELNLKINSNELELRLLNNQCDKHALNIQLTQEKLDSLLLMQ", "values": [
      {"measurement": "Kd", "setting": "Bre1-LR K534E", "result": 19.4, "unit": "nM"},
      {"measurement": "Kd", "setting": "Bre1-LR V382N", "result": 63, "unit": "nM"},
      {"measurement": "Kd", "setting": "Bre1-LR A489N", "result": 41.1, "unit": "nM"},
      {"measurement": "Kd", "setting": "Bre1-LR K379E", "result": 41.3, "unit": "nM"}
    ]}
  ]
}
